Stoichiometry N data for one substance are collected here from paper PMC5362899, “Structural insights into the nucleotide base specificity of P2X receptors” (Scientific Reports, 2017).

This assay addresses zebrafish P2X4 construct ΔP2X4-C (ΔN27/ΔC24/N78K/N187R) (zebrafish) (UniProt F8W463). Briefly: crystal structure; ΔP2X4-C (2 mg/ml) with 3 mM CTP; crystals grown at 4 °C by cross-seeding in 20-26% PEG 2000, 300 mM Mg(NO3)2, 100 mM Tris pH 8.0; 2.8 Å.

One may read the stoichiometry N as a count of units in the complex or per binding partner. Substance “zebrafish P2X4 construct ΔP2X4-C (ΔN27/ΔC24/N78K/N187R) (from UniProt F8W463 28-365) (receptor)” returned a stoichiometry N of 3.
